From patent publication US11130793B2, “GLP-1/GLP-2 dual agonists” (Zealand Pharma A/S, priority 2016, dated 2021)
Square brackets hold non-standard residues; d marks the D form. Peptide text beside a SMILES is read from it. Aib = CC(C)(N)C(=O)O

T1: human GLP-2 receptor (Homo sapiens, UniProt O95838, D470N)
T1 sequence (O95838 1-553 D470N): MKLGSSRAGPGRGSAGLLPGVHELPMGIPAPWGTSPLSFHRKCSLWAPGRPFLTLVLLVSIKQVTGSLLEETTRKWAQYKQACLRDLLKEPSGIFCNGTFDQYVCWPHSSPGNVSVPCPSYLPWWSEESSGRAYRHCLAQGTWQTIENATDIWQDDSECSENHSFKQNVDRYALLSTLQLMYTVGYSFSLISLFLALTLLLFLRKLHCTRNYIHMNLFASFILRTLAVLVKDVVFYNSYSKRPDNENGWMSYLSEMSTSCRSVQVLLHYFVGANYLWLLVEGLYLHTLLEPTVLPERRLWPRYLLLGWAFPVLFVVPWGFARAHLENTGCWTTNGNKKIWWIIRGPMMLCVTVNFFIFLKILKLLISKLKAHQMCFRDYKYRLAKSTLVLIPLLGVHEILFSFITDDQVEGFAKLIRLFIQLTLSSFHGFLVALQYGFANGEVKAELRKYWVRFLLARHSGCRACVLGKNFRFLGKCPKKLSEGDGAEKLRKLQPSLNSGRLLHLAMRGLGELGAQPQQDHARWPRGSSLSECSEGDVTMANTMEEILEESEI

T2: human GLP-2 receptor (hGLP2-R) (human, UniProt O95838)
T2 sequence: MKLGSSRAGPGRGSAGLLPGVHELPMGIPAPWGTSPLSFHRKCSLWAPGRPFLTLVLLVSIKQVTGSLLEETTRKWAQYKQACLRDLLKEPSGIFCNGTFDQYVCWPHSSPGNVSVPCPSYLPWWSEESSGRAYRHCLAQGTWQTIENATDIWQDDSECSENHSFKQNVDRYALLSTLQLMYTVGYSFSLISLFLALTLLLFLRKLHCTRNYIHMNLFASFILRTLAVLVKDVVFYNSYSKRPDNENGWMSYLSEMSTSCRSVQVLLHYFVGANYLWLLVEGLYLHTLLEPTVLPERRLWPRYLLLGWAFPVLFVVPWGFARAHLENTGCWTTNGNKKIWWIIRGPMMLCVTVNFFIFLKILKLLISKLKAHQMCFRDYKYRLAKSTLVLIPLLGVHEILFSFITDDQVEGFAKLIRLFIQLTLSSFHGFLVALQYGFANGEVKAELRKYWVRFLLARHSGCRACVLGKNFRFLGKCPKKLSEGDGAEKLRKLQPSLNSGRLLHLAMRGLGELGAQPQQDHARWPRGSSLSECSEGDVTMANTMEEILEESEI


Experiments:
human GLP-1 receptor = molecular target: T3, human GLP-1 receptor (Homo sapiens, UniProt P43220); test: GLP-1 receptor potency assay (cAMP AlphaScreen, HEK293 cells stably expressing GLP-1R); type: cell-based; conditions: cAMP response, HEK293 cells expressing human GLP-1R; read-out: EC50 GLP-1
T3 construct: expressed in transfected cells
Source text: (§1) One useful in vitro assay for measuring GLP-1 and GLP-2 receptor activity is quantitation of cAMP, i.e. 3′-5′-cyclic adenosine monophosphate, which is a second messenger essential in many biological processes, and one of the most ubiquitous mechanisms for regulating cellular functions. […] Test compounds eliciting an increase in the intracellular level of cAMP can be tested in these assays, and the response normalized relative to a positive and negative control (vehicle) to calculate the EC50 and maximal response from the concentration response curve using the 4-parameter logistic (4PL) nonlinear model for curve fitting.
The cDNA encoding the human glucagon-like peptide 1 receptor (GLP-1R) (primary accession number P43220) was cloned from the cDNA BC112126 (MGC:138331/IMAGE:8327594). The DNA encoding the GLP-1-R was amplified by PCR using primers encoding terminal restriction sites for subcloning. The 5′-end primers additionally encoded a near Kozak consensus sequence to ensure efficient translation. […] The PCR products encoding the GLP-1-R were subcloned into a mammalian expression vector containing a neomycin (G418) resistance marker. The mammalian expression vectors encoding the GLP-1-R were transfected into HEK293 cells by a standard calcium phosphate transfection method. 48 hours post-transfection, cells were seeded for limited dilution cloning and selected with 1 mg/ml G418 in the culture medium. Following 3 weeks in G418 selection clones were picked and tested in a functional GLP-1 receptor potency assay as described below.
(§2) The cAMP AlphaScreen assay from Perkin Elmer was used to quantitate the cAMP response to activation of the GLP1 and GLP2 receptor, respectively. […] Data from test compounds eliciting an increase in the intracellular level of cAMP were normalized relative to the positive and negative control (vehicle) to calculate the EC50 and maximal response from the concentration response curve.

human GLP-2 receptor = molecular target: T1, human GLP-2 receptor; test: GLP-2 receptor potency assay (cAMP AlphaScreen, HEK293 cells stably expressing GLP-2R); type: cell-based; conditions: cAMP response, HEK293 cells expressing human GLP-2R
Source text: as §1
The hGLP2-R was purchased from MRC-geneservice, Babraham, Cambridge as an Image clone: 5363415 (11924-I17). For subcloning into a mammalian expression vector, primers for subcloning were obtained from DNA-Technology, Risskov, Denmark. The 5′ and 3′ primers used for the PCR reaction include terminal restriction sites for cloning and the context of the 5′ primer is modified to a Kozak consensus without changing the sequence of the product encoded by the ORF. A standard PCR reaction was run using Image clone 5363415 (11924-117) as a template with the above mentioned primers and Polymerase Herculase II Fusion in a total vol. of 50 μl. The generated PCR product was purified using GFX PCR and Gel band purification kit, digested with restriction enzymes and cloned into the mammalian expression vector using Rapid DNA Ligation Kit. Ligation reaction was transformed to XL10 Gold Ultracompetent cells and colonies were picked for DNA production using Endofree Plasmid maxi kit. Subsequent sequence analysis was conducted by MWG Eurofins, Germany.
HEK293 cells were transfected using the Lipofectamine PLUS transfection method. The day before transfection, HEK293 cells were seeded in two T75 flasks at a density of 2×10^6 cells/T75 flask in cell culturing medium without antibiotics. On the day of transfection, cells were washed with 1×DPBS and medium was replaced with Optimem to a volume of 5 mL/T75 flask before addition of Lipofectamine-plasmid complexes were added gently and drop wise to the cells in T75 flasks and replaced with growth medium after 3 hours and again to growth medium supplemented with 500 μg/mL G418 after 24 hours. Following 4 weeks in G418 selection, clones were picked and tested in a functional GLP-2 receptor potency assay as described below.
as §2

[1] = molecular target: human glucagon-like peptide 1 receptor (GLP-1R) (human, UniProt P43220); test: cell-based or functional assay
[2] = molecular target: T2, human GLP-2 receptor (hGLP2-R); test: cell-based or functional assay

T3 sequence (P43220 24-463): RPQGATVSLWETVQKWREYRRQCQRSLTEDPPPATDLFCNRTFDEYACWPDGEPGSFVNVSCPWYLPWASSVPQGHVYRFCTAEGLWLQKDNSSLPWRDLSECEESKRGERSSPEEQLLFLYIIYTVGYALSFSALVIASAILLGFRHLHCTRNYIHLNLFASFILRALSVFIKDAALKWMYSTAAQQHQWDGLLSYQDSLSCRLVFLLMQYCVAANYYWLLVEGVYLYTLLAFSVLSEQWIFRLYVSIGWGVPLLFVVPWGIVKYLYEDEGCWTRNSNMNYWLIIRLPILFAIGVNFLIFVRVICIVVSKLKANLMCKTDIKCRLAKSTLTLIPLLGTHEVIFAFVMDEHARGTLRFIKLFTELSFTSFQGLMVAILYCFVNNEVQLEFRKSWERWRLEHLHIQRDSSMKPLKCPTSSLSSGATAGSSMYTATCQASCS

| Molecule | EC50 (human GLP-1 receptor) | EC50 (human GLP-2 receptor) | EC50 GLP-1 (nM); cAMP AlphaScreen [1] | EC50 GLP-2 (nM); cAMP AlphaScreen [2] |
| --- | --- | --- | --- | --- |
| CC[C@H](C)[C@H](NC(=O)[C@H](CC(C)C)NC(=O)[C@H](Cc1c[nH]c2ccccc12)NC(=O)[C@H](C)NC(=O)[C@@H](NC(=O)[C@H](Cc1ccccc1)NC(=O)[C@H](CC(=O)O)NC(=O)[C@H](CCCNC(=N)N)NC(=O)[C@H](C)NC(=O)[C@H](C)NC(=O)[C@H](CCC(N)=O)NC(=O)[C@H](CCC(=O)O)NC(=O)[C@H](CC(=O)O)NC(=O)[C@H](CC(C)C)NC(=O)[C@@H](NC(=O)[C@@H](NC(=O)[C@H](C)NC(=O)[C@H](CC(C)C)NC(=O)[C@H](CCC(=O)O)NC(=O)[C@H](CO)NC(=O)[C@@H](NC(=O)[C@H](Cc1ccccc1)NC(=O)[C@@H](NC(=O)CNC(=O)[C@H](CCC(=O)O)NC(=O)C(C)(C)NC(=O)[C@@H](N)Cc1c[nH]cn1)[C@@H](C)O)[C@@H](C)O)[C@@H](C)O)[C@@H](C)CC)[C@@H](C)CC)C(=O)N[C@@H](C)C(=O)N[C@@H](Cc1ccc(O)cc1)C(=O)N[C@@H](CCCCN)C(=O)N[C@H](C(=O)N[C@H](C(=O)N[C@@H](CC(=O)O)C(=O)O)[C@@H](C)O)[C@@H](C)CC [Compound 20] (H-H[Aib]EGTFTSELATILDEQAARDFIAWLIAYKITD-OH) | 12 pM | 260 pM | – | – |
| CC[C@H](C)[C@H](NC(=O)[C@H](Cc1ccccc1)NC(=O)[C@H](CC(=O)O)NC(=O)[C@H](CCCNC(=N)N)NC(=O)[C@H](C)NC(=O)[C@H](C)NC(=O)[C@H](CC(C)C)NC(=O)[C@H](CC(N)=O)NC(=O)[C@H](CC(=O)O)NC(=O)[C@H](CC(C)C)NC(=O)[C@@H](NC(=O)[C@@H](NC(=O)[C@H](CC(N)=O)NC(=O)[C@H](CCSC)NC(=O)[C@H](CCC(=O)O)NC(=O)[C@H](CC(=O)O)NC(=O)[C@H](CO)NC(=O)[C@H](Cc1ccccc1)NC(=O)[C@H](CO)NC(=O)CNC(=O)[C@H](CC(=O)O)NC(=O)CNC(=O)[C@@H](N)Cc1c[nH]cn1)[C@@H](C)O)[C@@H](C)CC)C(=O)N[C@@H](CC(N)=O)C(=O)N[C@@H](Cc1c[nH]c2ccccc12)C(=O)N[C@@H](CC(C)C)C(=O)N[C@H](C(=O)N[C@@H](CCC(N)=O)C(=O)N[C@H](C(=O)N[C@@H](CCCCN)C(=O)N[C@H](C(=O)N[C@H](C(=O)N[C@@H](CC(=O)O)C(=O)O)[C@@H](C)O)[C@@H](C)CC)[C@@H](C)O)[C@@H](C)CC [Teduglutide, [Gly2]-hGLP-2 (1-33), reference compound] | 39000 pM | – | – | – |
| CC[C@H](C)[C@H](NC(=O)[C@H](Cc1ccccc1)NC(=O)[C@H](CC(=O)O)NC(=O)[C@H](CCCNC(=N)N)NC(=O)[C@H](C)NC(=O)[C@H](C)NC(=O)[C@H](CCC(N)=O)NC(=O)[C@H](CCC(=O)O)NC(=O)[C@H](CC(=O)O)NC(=O)[C@H](CC(C)C)NC(=O)[C@@H](NC(=O)[C@@H](NC(=O)[C@H](C)NC(=O)[C@H](CC(C)C)NC(=O)[C@H](CCC(=O)O)NC(=O)[C@H](CO)NC(=O)[C@@H](NC(=O)[C@H](Cc1ccccc1)NC(=O)[C@H](CO)NC(=O)CNC(=O)[C@H](CCC(=O)O)NC(=O)C(C)(C)NC(=O)[C@@H](N)Cc1c[nH]cn1)[C@@H](C)O)[C@@H](C)O)[C@@H](C)CC)C(=O)N[C@@H](C)C(=O)N[C@@H](Cc1c[nH]c2ccccc12)C(=O)N[C@@H](CC(C)C)C(=O)N[C@@H](CCC(N)=O)C(=O)N[C@@H](C)C(=O)N[C@@H](Cc1c[nH]cn1)C(=O)N[C@@H](CCCCN)C(=O)N[C@H](C(=O)N[C@H](C(=O)N[C@@H](CC(=O)O)C(=O)O)[C@@H](C)O)[C@@H](C)CC [Compound 24] (H-H[Aib]EGSFTSELATILDEQAARDFIAWLQAHKITD-OH) | 42 pM | 49 pM | – | – |
| H-H[Aib]EGTFSSELSTILEEQASREFIAWLIAHKITE-OH (SMILES CC[C@H](C)[C@H](NC(=O)[C@H](CC(C)C)NC(=O)[C@H](Cc1c[nH]c2ccccc12)NC(=O)[C@H](C)NC(=O)[C@@H](NC(=O)[C@H](Cc1ccccc1)NC(=O)[C@H](CCC(=O)O)NC(=O)[C@H](CCCNC(=N)N)NC(=O)[C@H](CO)NC(=O)[C@H](C)NC(=O)[C@H](CCC(N)=O)NC(=O)[C@H](CCC(=O)O)NC(=O)[C@H](CCC(=O)O)NC(=O)[C@H](CC(C)C)NC(=O)[C@@H](NC(=O)[C@@H](NC(=O)[C@H](CO)NC(=O)[C@H](CC(C)C)NC(=O)[C@H](CCC(=O)O)NC(=O)[C@H](CO)NC(=O)[C@H](CO)NC(=O)[C@H](Cc1ccccc1)NC(=O)[C@@H](NC(=O)CNC(=O)[C@H](CCC(=O)O)NC(=O)C(C)(C)NC(=O)[C@@H](N)Cc1c[nH]cn1)[C@@H](C)O)[C@@H](C)O)[C@@H](C)CC)[C@@H](C)CC)C(=O)N[C@@H](C)C(=O)N[C@@H](Cc1c[nH]cn1)C(=O)N[C@@H](CCCCN)C(=O)N[C@H](C(=O)N[C@H](C(=O)N[C@@H](CCC(=O)O)C(=O)O)[C@@H](C)O)[C@@H](C)CC) [Compound 39] | – | – | 0.03 nM | 0.96 nM |
| H-HGEGSFSSELATILDEQAARDFIAWLIQHKITD-NH2 [Compound 40] | – | – | 1.4 nM | 0.05 nM |
| H-H[Aib]EGSFSSELATILDEQAARDFIAWLIQHKITD-OH (SMILES CC[C@H](C)[C@H](NC(=O)[C@H](Cc1ccccc1)NC(=O)[C@H](CC(=O)O)NC(=O)[C@H](CCCNC(=N)N)NC(=O)[C@H](C)NC(=O)[C@H](C)NC(=O)[C@H](CCC(N)=O)NC(=O)[C@H](CCC(=O)O)NC(=O)[C@H](CC(=O)O)NC(=O)[C@H](CC(C)C)NC(=O)[C@@H](NC(=O)[C@@H](NC(=O)[C@H](C)NC(=O)[C@H](CC(C)C)NC(=O)[C@H](CCC(=O)O)NC(=O)[C@H](CO)NC(=O)[C@H](CO)NC(=O)[C@H](Cc1ccccc1)NC(=O)[C@H](CO)NC(=O)CNC(=O)[C@H](CCC(=O)O)NC(=O)C(C)(C)NC(=O)[C@@H](N)Cc1c[nH]cn1)[C@@H](C)O)[C@@H](C)CC)C(=O)N[C@@H](C)C(=O)N[C@@H](Cc1c[nH]c2ccccc12)C(=O)N[C@@H](CC(C)C)C(=O)N[C@H](C(=O)N[C@@H](CCC(N)=O)C(=O)N[C@@H](Cc1c[nH]cn1)C(=O)N[C@@H](CCCCN)C(=O)N[C@H](C(=O)N[C@H](C(=O)N[C@@H](CC(=O)O)C(=O)O)[C@@H](C)O)[C@@H](C)CC)[C@@H](C)CC) [Compound 41] | – | – | 0.078 nM | 0.026 nM |
